# Literature values in paper PMC4452390.
# Target: EGFR (Homo sapiens) (UniProt P00533)
substance,measurement,value
EGF (from UniProt P01133),Kd,3 nM
